B1: NubG-Slc1 (enzyme, S. cerevisiae, UniProt P33333 1-303, looked up)
chain: MSVIGRFLYYLRSVLVVLALAGCGFYGVIASILCTLIGKQHLAQWITARCFYHVMKLMLGLDVKVVGEENLAKKPYIMIANHQSTLDIFMLGRIFPPGCTVTAKKSLKYVPFLGWFMALSGTYFLDRSKRQEAIDTLNKGLENVKKNKRALWVFPEGTRSYTSELTMLPFKKGAFHLAQQGKIPIVPVVVSNTSTLVSPKYGVFNRGCMIVRILKPISTENLTKDKIGEFAEKVRDQMVDTLKEIGYSPAINDTTLPPQAIEYAALQHDKKVNKKIKNEPVPSVSISNDVNTHNEGSSVKKMH
notes: Slc1, lysophosphatidic acid acyltransferase of S. cerevisiae; 'the SLC1 open reading frame was amplified from S. cerevisiae genomic DNA'; also called pADSL-NubG-SLC1; source: yeast two-hybrid fusion (split ubiquitin prey), from plasmid pADSL-NubG-SLC1 in S. cerevisiae; not shown: NubG, N-terminal, kept
B2: NubG-Gpt2 (enzyme, S. cerevisiae, UniProt P36148 1-743, looked up)
chain: MSAPAADHNAAKPIPHVPQASRRYKNSYNGFVYNIHTWLYDVSVFLFNILFTIFFREIKVRGAYNVPEVGVPTILVCAPHANQFIDPALVMSQTRLLKTSAGKSRSRMPCFVTAESSFKKRFISFFGHAMGGIPVPRIQDNLKPVDENLEIYAPDLKNHPEIIKGRSKNPQTTPVNFTKRFSAKSLLGLPDYLSNAQIKEIPDDETIILSSPFRTSKSKVVELLTNGTNFKYAEKIDNTETFQSVFDHLHTKGCVGIFPEGGSHDRPSLLPIKAGVAIMALGAVAADPTMKVAVVPCGLHYFHRNKFRSRAVLEYGEPIVVDGKYGEMYKDSPRETVSKLLKKITNSLFSVTENAPDYDTLMVIQAARRLYQPVKVRLPLPAIVEINRRLLFGYSKFKDDPRIIHLKKLVYDYNRKLDSVGLKDHQVMQLKTTKLEALRCFVTLIVRLIKFSVFAILSLPGSILFTPIFIICRVYSEKKAKEGLKKSLVKIKGTDLLATWKLIVALILAPILYVTYSILLIILARKQHYCRIWVPSNNAFIQFVYFYALLVFTTYSSLKTGEIGVDLFKSLRPLFVSIVYPGKKIEEIQTTRKNLSLELTAVCNDLGPLVFPDYDKLATEIFSKRDGYDVSSDAESSISRMSVQSRSRSSSIHSIGSLASNALSRVNSRGSLTDIPIFSDAKQGQWKSEGETSEDEDEFDEKNPAIVQTARSSDLNKENSRNTNISSKIASLVRQKREHEKKE
notes: Gpt2, glycerophosphate acyltransferase of S. cerevisiae; also called pNubG-GPT2; pADSL-NubG-GPT2; source: yeast two-hybrid fusion (split ubiquitin prey), from plasmid pADSL-NubG-GPT2 in S. cerevisiae; not shown: NubG, N-terminal, kept
B3: NubG-Sct1 (enzyme, S. cerevisiae, UniProt P32784 1-759, looked up)
chain: MPAPKLTEKFASSKSTQKTTNYSSIEAKSVKTSADQAYIYQEPSATKKILYSIATWLLYNIFHCFFREIRGRGSFKVPQQGPVIFVAAPHANQFVDPVILMGEVKKSVNRRVSFLIAESSLKQPPIGFLASFFMAIGVVRPQDNLKPAEGTIRVDPTDYKRVIGHDTHFLTDCMPKGLIGLPKSMGFGEIQSIESDTSLTLRKEFKMAKPEIKTALLTGTTYKYAAKVDQSCVYHRVFEHLAHNNCIGIFPEGGSHDRTNLLPLKAGVAIMALGCMDKHPDVNVKIVPCGMNYFHPHKFRSRAVVEFGDPIEIPKELVAKYHNPETNRDAVKELLDTISKGLQSVTVTCSDYETLMVVQTIRRLYMTQFSTKLPLPLIVEMNRRMVKGYEFYRNDPKIADLTKDIMAYNAALRHYNLPDHLVEEAKVNFAKNLGLVFFRSIGLCILFSLAMPGIIMFSPVFILAKRISQEKARTALSKSTVKIKANDVIATWKILIGMGFAPLLYIFWSVLITYYLRHKPWNKIYVFSGSYISCVIVTYSALIVGDIGMDGFKSLRPLVLSLTSPKGLQKLQKDRRNLAERIIEVVNNFGSELFPDFDSAALREEFDVIDEEEEDRKTSELNRRKMLRKQKIKRQEKDSSSPIISQRDNHDAYEHHNQDSDGVSLVNSDNSLSNIPLFSSTFHRKSESSLASTSVAPSSSSEFEVENEILEEKNGLASKIAQAVLNKRIGENTAREEEEEEEEEEEEEEEEEEGKEGDA
notes: Sct1, glycerophosphate acyltransferase of S. cerevisiae; also called pNubG-SCT1; pADSL-NubG-SCT1; source: yeast two-hybrid fusion (split ubiquitin prey), from plasmid pADSL-NubG-SCT1 in S. cerevisiae; not shown: NubG, N-terminal, kept
B4: NubG-Dga1 (full-length NubG-Dga1 fusion) (enzyme, S. cerevisiae, UniProt Q08650 1-418, looked up)
chain: MSGTFNDIRRRKKEEGSPTAGITERHENKSLSSIDKREQTLKPQLESCCPLATPFERRLQTLAVAWHTSSFVLFSIFTLFAISTPALWVLAIPYMIYFFFDRSPATGEVVNRYSLRFRSLPIWKWYCDYFPISLIKTVNLKPTFTLSKNKRVNEKNYKIRLWPTKYSINLKSNSTIDYRNQECTGPTYLFGYHPHGIGALGAFGAFATEGCNYSKIFPGIPISLMTLVTQFHIPLYRDYLLALGISSVSRKNALRTLSKNQSICIVVGGARESLLSSTNGTQLILNKRKGFIKLAIQTGNINLVPVFAFGEVDCYNVLSTKKDSVLGKMQLWFKENFGFTIPIFYARGLFNYDFGLLPFRAPINVVVGRPIYVEKKITNPPDDVVNHFHDLYIAELKRLYYENREKYGVPDAELKIVG
notes: Dga1, diacylglycerol acyltransferase of S. cerevisiae; DGA1 amplified from W303 genomic DNA; 418 residues by the printed ranges; also called pNubG-DGA1; pADSL-NubG-DGA1; source: yeast two-hybrid fusion (split ubiquitin prey), from plasmid pADSL-NubG-DGA1 in S. cerevisiae; not shown: NubG, N-terminal, kept
B5: NubG-Dga1KR (Dga1 K397A, R398A) (enzyme, S. cerevisiae, UniProt Q08650 1-418, looked up)
chain: MSGTFNDIRRRKKEEGSPTAGITERHENKSLSSIDKREQTLKPQLESCCPLATPFERRLQTLAVAWHTSSFVLFSIFTLFAISTPALWVLAIPYMIYFFFDRSPATGEVVNRYSLRFRSLPIWKWYCDYFPISLIKTVNLKPTFTLSKNKRVNEKNYKIRLWPTKYSINLKSNSTIDYRNQECTGPTYLFGYHPHGIGALGAFGAFATEGCNYSKIFPGIPISLMTLVTQFHIPLYRDYLLALGISSVSRKNALRTLSKNQSICIVVGGARESLLSSTNGTQLILNKRKGFIKLAIQTGNINLVPVFAFGEVDCYNVLSTKKDSVLGKMQLWFKENFGFTIPIFYARGLFNYDFGLLPFRAPINVVVGRPIYVEKKITNPPDDVVNHFHDLYIAELAALYYENREKYGVPDAELKIVG
notes: Dga1 of S. cerevisiae, charged-to-alanine mutant made in pADSL-NubG-DGA1 (the full-length fusion); source: yeast two-hybrid fusion (split ubiquitin prey), synthetic DNA fragment assembled into pADSL-NubG-DGA1, in S. cerevisiae; not shown: NubG, N-terminal, kept
B6: NubG-Dga1DEK (Dga1 D411A, E413A, K415A) (enzyme, S. cerevisiae, UniProt Q08650 1-418, looked up)
chain: MSGTFNDIRRRKKEEGSPTAGITERHENKSLSSIDKREQTLKPQLESCCPLATPFERRLQTLAVAWHTSSFVLFSIFTLFAISTPALWVLAIPYMIYFFFDRSPATGEVVNRYSLRFRSLPIWKWYCDYFPISLIKTVNLKPTFTLSKNKRVNEKNYKIRLWPTKYSINLKSNSTIDYRNQECTGPTYLFGYHPHGIGALGAFGAFATEGCNYSKIFPGIPISLMTLVTQFHIPLYRDYLLALGISSVSRKNALRTLSKNQSICIVVGGARESLLSSTNGTQLILNKRKGFIKLAIQTGNINLVPVFAFGEVDCYNVLSTKKDSVLGKMQLWFKENFGFTIPIFYARGLFNYDFGLLPFRAPINVVVGRPIYVEKKITNPPDDVVNHFHDLYIAELKRLYYENREKYGVPAAALAIVG
notes: as for B5

How the values were obtained:
Ole1-Myc-Cub-LexA-VP16 = target: T1, Ole1-Myc-Cub-LexA-VP16 (S. cerevisiae, UniProt P21147 1-510); test: two-hybrid; integrated membrane yeast two-hybrid (split ubiquitin): Ole1-Myc-Cub-LexA-VP16 from the endogenous locus of strain YBG1 as bait, NubG fusions from plasmids as prey; growth on SD-W-H-A with 6 mM 3-aminotriazole and β-galactosidase activity of cell extracts
T1 construct: Ole1, Δ9 acyl-CoA (stearoyl-CoA) desaturase of S. cerevisiae; the endogenous chromosomal OLE1 gene, with the tag at its carboxyl end; The tag was put behind the chromosomal gene, so the whole protein is likely; also called Δ9 acyl-CoA desaturase Ole1; Ole1-Cub-LexA-VP16; not shown: Myc, C-terminal, kept; Cub-LexA-VP16, C-terminal, kept
T1 sequence (looked up): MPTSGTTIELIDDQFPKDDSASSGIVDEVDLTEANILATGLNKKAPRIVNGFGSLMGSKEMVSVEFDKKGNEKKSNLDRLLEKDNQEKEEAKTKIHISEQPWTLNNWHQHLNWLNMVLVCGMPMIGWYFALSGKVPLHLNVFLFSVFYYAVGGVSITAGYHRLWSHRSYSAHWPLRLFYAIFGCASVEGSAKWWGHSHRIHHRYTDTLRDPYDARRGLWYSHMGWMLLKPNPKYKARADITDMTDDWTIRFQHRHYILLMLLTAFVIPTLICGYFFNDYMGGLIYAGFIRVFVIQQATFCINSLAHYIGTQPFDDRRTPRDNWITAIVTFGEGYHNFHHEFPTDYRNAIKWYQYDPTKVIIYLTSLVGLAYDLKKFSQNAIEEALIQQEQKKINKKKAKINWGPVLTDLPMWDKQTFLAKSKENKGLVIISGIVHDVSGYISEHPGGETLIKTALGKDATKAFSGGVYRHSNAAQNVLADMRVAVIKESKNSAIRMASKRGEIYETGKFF

Slc1-Cub-LexA-VP16 = target: T2, Slc1-Cub-LexA-VP16 (S. cerevisiae, UniProt P33333 1-303); test: two-hybrid; membrane yeast two-hybrid (split ubiquitin): plasmid-borne Slc1-Cub-LexA-VP16 as bait and NubG fusions as prey in NMY51; growth on SD-W-L-H-A with 6 mM 3-aminotriazole and β-galactosidase activity of cell extracts; details: partners not purified
T2 construct: Slc1, lysophosphatidic acid acyltransferase of S. cerevisiae; The end of the tag is read from the order of the printed label; also called Slc1 bait (strain YBG2); pTMBV4-SLC1; not shown: Cub-LexA-VP16, C-terminal, kept
T2 sequence (looked up): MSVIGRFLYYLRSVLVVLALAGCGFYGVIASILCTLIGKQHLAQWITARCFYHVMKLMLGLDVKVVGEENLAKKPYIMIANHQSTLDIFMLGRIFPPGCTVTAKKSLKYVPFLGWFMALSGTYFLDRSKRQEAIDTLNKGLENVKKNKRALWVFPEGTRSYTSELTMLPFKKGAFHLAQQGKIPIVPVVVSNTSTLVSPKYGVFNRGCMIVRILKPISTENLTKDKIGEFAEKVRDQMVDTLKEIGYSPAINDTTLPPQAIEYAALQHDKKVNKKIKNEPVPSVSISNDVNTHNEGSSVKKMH

Binder	β-galactosidase activity, fold over Alg5-NubG (Slc1-Cub-LexA-VP16) [fold over Alg5-NubG]	β-galactosidase activity, % of wildtype Dga1 (Ole1-Myc-Cub-LexA-VP16; partners not purified)	further results
B1			β-galactosidase activity, fold over the negative control Alg5-NubG (Ole1-Myc-Cub-LexA-VP16; partners not purified): 9 fold over the negative control
B2	~10		
B3			β-galactosidase activity, fold of the negative control (Slc1-Cub-LexA-VP16): 3 fold of the negative control; β-galactosidase activity, fold of the negative control Alg5-NubG (fold of the negative control) (Ole1-Myc-Cub-LexA-VP16): 2
B4	17		β-galactosidase activity, fold over the negative control Alg5-NubG (fold over the negative control) (Ole1-Myc-Cub-LexA-VP16): 11
B5		~60 % of wildtype Dga1	
B6		~60 % of wildtype Dga1	

Source: paper PMC10302205, “Saccharomyces cerevisiae Δ9-desaturase Ole1 forms a supercomplex with Slc1 and Dga1” (The Journal of Biological Chemistry, 2023)
